Reference: US20230285504A1, “INHIBITION OF REPERFUSION INJURY WITH A PSD-95 INHIBITOR” (NONO INC., priority 2020, published 2023)
Read-outs that look alike come from different tables or passages of the source.

How the values were obtained:
[1] = system: embolic middle cerebral artery occlusion (eMCAO)
Description: Nerinetide (7.6 mg/kg) was administered as an intravenous bolus injection either 30 minutes before, or simultaneously with, the onset of a 60-minute infusion of rt-PA (5.4 mg/kg with a 10% bolus followed by 90% over 60 minutes). […] Experimental timeline. […] Hemispheric Infarct volume measurements 24 hours after eMCAo. […] Percentage of hemispheric brain swelling 24 hours after eMCAo and (D). Neurological scores 24 hours after eMCAo. Treatments were administered intravenously at the times indicated in (A). Bars represent mean±SD, with all individual data points plotted. Significant differences (in B) and (in C) are indicated with an asterisk when compared to the control group/nerinetide alone or with a number sign when compare to the thrombolytic agent (one-way ANOVA post hoc Tukey's correction for multiple comparisons test, *P<0.01 or #P <0.01, respectively) N=12-15 animals/group. Significant differences (in D) are indicated with an asterisk when compared to the control group/nerinetide alone or with a number sign when compare to the thrombolytic agent (Kruskal-Wallis analysis of variance on ranks with a post-hoc Dunn's correction for multiple comparisons test, *P<0.01 or #P<0.01, respectively).
To test this, male Sprague-Dawley rats (10-12 weeks old; 270-310 g; Charles River, Montreal, QC, Canada) were subjected to embolic middle cerebral artery occlusion (eMCAO), produced by the introduction of an autologous blood thrombus into the middle cerebral artery. Reperfusion was achieved by treatment with intravenous alteplase at a total dose of 5.4 mg/kg beginning at 90 minutes after ischemia onset. Alteplase was administered using the human injection protocol in which 10% of the total dose is given as a bolus, with the remainder 90% of the dose being given over a 60-minute infusion. The dose of alteplase was 6 times the human dose, in anticipation that the rat fibrinolytic system may be less sensitive to human recombinant tPA. […] Nerinetide was administered either 30 minutes prior to, or concurrently with, the start of the alteplase administration (FIG. 7A) at a dose of 7.6 mg/kg. […] Infarct volumes, hemispheric swelling and neurological scores were evaluated at 24 hours.

[2] = cited from earlier work

alteplase [reference compound]
reduction of infarction volume ([1]; alteplase alone 5.4 mg/kg given at 60 min after eMCAO): 26%
reduction of infarction volume ([1]; alteplase alone 5.4 mg/kg given at 90 minutes after eMCAO): 18%
mortality in pilot studies ([1]; rat, alteplase 10x human dose, hemorrhagic conversions of strokes): unacceptable mortality rates
plasma half-life in human plasma ([2]; in vivo): about five

plasmin
cleavage of nerinetide by plasmin, LC/MS of fragments after incubation in PBS at 37 C (Tat-NR2B9c): Cleavage products consistent with these sites of cleavage were observed after incubating nerinetide (18 mg/mL) with plasmin (1 mg/mL) in phosphate-buffered saline at 37 °C and analyzing the samples by LC/MS

B1: Plasmin: serine protease activated by thrombolytics to dissolve fibrin blood clots; cleaves nerinetide (protein, UniProt P00747 20-580; P00747 581-810, looked up)
Plasmin heavy chain A: EPLDDYVNTQGASLFSVTKKQLGAGSIEECAAKCEEDEEFTCRAFQYHSKEQQCVIMAENRKSSIIIRMRDVVLFEKKVYLSECKTGNGKNYRGTMSKTKNGITCQKWSSTSPHRPRFSPATHPSEGLEENYCRNPDNDPQGPWCYTTDPEKRYDYCDILECEEECMHCSGENYDGKISKTMSGLECQAWDSQSPHAHGYIPSKFPNKNLKKNYCRNPDRELRPWCFTTDPNKRWELCDIPRCTTPPPSSGPTYQCLKGTGENYRGNVAVTVSGHTCQHWSAQTPHTHNRTPENFPCKNLDENYCRNPDGKRAPWCHTTNSQVRWEYCKIPSCDSSPVSTEQLAPTAPPELTPVVQDCYHGDGQSYRGTSSTTTTGKKCQSWSSMTPHRHQKTPENYPNAGLTMNYCRNPDADKGPWCFTTDPSVRWEYCNLKKCSGTEASVVAPPPVVLLPDVETPSEEDCMFGNGKGYRGKRATTVTGTPCQDWAAQEPHRHSIFTPETNPRAGLEKNYCRNPDGDVGGPWCYTTNPRKLYDYCDVPQCAAPSFDCGKPQVEPKKCPGR
Plasmin light chain B: VVGGCVAHPHSWPWQVSLRTRFGMHFCGGTLISPEWVLTAAHCLEKSPRPSSYKVILGAHQEVNLEPHVQEIEVSRLFLEPTRKDIALLKLSSPAVITDKVIPACLPSPNYVVADRTECFITGWGETQGTFGAGLLKEAQLPVIENKVCNRYEFLNGRVQSTELCAGHLAGGTDSCQGDSGGPLVCFEKDKYILQGVTSWGLGCARPNKPGVYVRVSRFVTWIEGVMRNN
modifications: Plasmin
notes: cleaves nerinetide
half-life in human plasma ([2]; has been reported): 4 to 8 h
